For 10 molecules, binding result, OD450 and Mean fluorescence intensity results are on record in US20220033501A1 (SHANGHAI PHARMAEXPLORER, published 2022).

Substitutions are numbered along the chain they refer to.

The labels stand for the following.
T1: murine TIM-3 protein with hFc tag (mTIM-3-hFc protein) (mouse; human, UniProt Q8VIM0 29-191)
T1 construct: Made in HEK293 cells; also called mouse TIM-3 extracellular domain protein; not shown: human IgG Fc fragment (hFc) of the pCpC vector
T1 chain: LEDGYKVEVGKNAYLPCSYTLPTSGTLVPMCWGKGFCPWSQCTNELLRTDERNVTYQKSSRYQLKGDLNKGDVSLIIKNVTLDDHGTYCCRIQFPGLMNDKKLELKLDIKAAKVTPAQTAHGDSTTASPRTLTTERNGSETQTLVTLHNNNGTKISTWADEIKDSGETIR

T2: murine TIM-3 extracellular domain protein with hFc tag (mTIM-3-hFc) (mouse, UniProt Q8VIM0 29-191)
T2 construct: also called mouse TIM-3 extracellular domain protein; not shown: human IgG Fc fragment (hFc) of the pCpC vector
T2 chain: T1 chain

T3: monkey TIM-3 protein with hFc tag (cTIM-3-hFc protein) (monkey; human)
T3 construct: Made in HEK293 cells; also called monkey TIM-3 extracellular domain protein; not shown: human IgG Fc fragment (hFc) of the pCpC vector
T3 chain: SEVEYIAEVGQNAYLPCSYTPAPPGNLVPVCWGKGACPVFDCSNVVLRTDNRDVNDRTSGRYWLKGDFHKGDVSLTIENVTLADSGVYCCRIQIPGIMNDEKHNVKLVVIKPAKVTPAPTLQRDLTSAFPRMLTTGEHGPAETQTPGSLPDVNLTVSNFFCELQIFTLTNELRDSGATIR

T4: human TIM-3 protein with hFc tag (hTIM-3-hFc protein) (human, UniProt Q8TDQ0 22-200)
T4 construct: also called immunogen 1; human TIM-3 extracellular domain protein; not shown: human IgG Fc fragment (hFc) of the pCpC vector
T4 sequence: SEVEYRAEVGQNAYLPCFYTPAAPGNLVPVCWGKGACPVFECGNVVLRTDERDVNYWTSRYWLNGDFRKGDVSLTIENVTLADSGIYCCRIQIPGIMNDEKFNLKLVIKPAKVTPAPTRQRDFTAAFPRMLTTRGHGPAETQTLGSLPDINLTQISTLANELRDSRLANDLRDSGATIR

T5: human TIM-3 on CHOK1 stable cell line (CHOK1-hTIM-3) (human, UniProt Q8TDQ0 22-301)
T5 sequence: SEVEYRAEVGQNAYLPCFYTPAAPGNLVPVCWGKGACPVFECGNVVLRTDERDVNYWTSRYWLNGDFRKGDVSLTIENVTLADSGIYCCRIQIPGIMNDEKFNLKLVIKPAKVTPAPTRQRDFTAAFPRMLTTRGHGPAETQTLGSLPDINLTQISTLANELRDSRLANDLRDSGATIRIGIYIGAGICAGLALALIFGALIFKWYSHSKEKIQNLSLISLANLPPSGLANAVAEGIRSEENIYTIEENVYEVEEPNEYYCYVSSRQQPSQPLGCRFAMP

T6: human TIM-3 extracellular domain protein with hFc tag (hTIM-3-hFc) (human, UniProt Q8TDQ0 22-200)
T6 construct: not shown: human IgG Fc fragment (hFc) of the pCpC vector
T6 sequence: T4 sequence

B1: 7A4F10 (TIM-3 antibody purified from hybridoma, chimeric antibody of Example 2) (antibody, V domains shown)
VH: EVQLLESGGGLVQPGGSLRLSCAASGFTFRTHLISWVRQAPGKGLEWVAAITGSGGSTYYADSVKGRFIISRDNSKNTLFLQMNSLRAEDTAVYYCAKDGGSGSYDDFWGQGTLVTVSS
VL: ETVLTQSPVTLSLSPGERATLSCRASQSVGSYLAWYQQKPGQAPRLLIYDASNRATGIPARFSGSGSGTDFTLTISSLEPEDFAVYYCQQRSNWPPTFGQGTKVEIK
notes: From hybridoma of Harbour H2L2 transgenic mice: human variable regions, rat constant regions
B2: 215A8F2 (TIM-3 antibody purified from hybridoma, chimeric antibody of Example 2) (antibody, V domains shown)
VH: QVQLQQWGAGLLKPSETLSLTCTVYGGSFSGYYWNWIRQPPGKGLEWLGEINHSGSTNYNPSLKRRVTISVDTSKNQFSLKLSSVTAADTAVYYCARVYYYGPFDFWGQGTLVTVSS
VL: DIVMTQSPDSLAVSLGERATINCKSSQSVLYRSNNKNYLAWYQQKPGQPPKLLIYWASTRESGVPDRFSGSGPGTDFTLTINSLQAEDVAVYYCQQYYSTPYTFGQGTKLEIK
notes: as for B1
B3: 34B6D8 (TIM-3 antibody purified from hybridoma, chimeric antibody of Example 2) (antibody, V domains shown)
VH: EVQLVESGGGLVQPGGSLRLSCAASGFTFSTYWMTWVRQAPGKRLEWVANIKQGGGDKYYVDSVKGRFTISTDNAKNSLYLQMNSLRAEDTAVYYCARGSNWFDPWGQGTLVTVSS
VL: EIVMTQSPATLSMSPGERATLSCRASQSVYDNLAWYQQKPGQAPRLLIYGASTRATGIPARFSGSGSGTEFTLTISSLQSEDFALYYCQQYTHWPITFGQGTRLEIK
notes: as for B1
B4: 18D2H2 (TIM-3 antibody purified from hybridoma, chimeric antibody of Example 2) (antibody, V domains shown)
VH: B3 VH with G10D, K43R, R44G, G54D, G56S, D57A, I70L, T72R, N74D, P105Y
VL: ETVMTQSPATLSVSPGERATLSCRANQNVYSNLAWYQQKPGQAPRLLIYDASTRATGFPARFSGSGSGTEFTLTISSLQSEDFAVYYCQQYNNWPLTFGGGTKVEIK
notes: as for B1
B5: 57F4E5 (TIM-3 antibody purified from hybridoma, chimeric antibody of Example 2) (antibody, V domains shown)
VH: EVQLVESGGGLVQPGGSLRLSCAASGFTFSSYWMSWVRQAPGKGLEWVANIKQDGSEKYYVDSVKGRFTISRDSAKNSLYLQMNSLRAEDTAMYFCARDSNFFDYWGQGTLVTVSS
VL: B4 VL with N26S, N28S, Y30S, Q38R, D50F, A51S, F58I
notes: as for B1
B6: 39E5H1 (TIM-3 antibody purified from hybridoma, chimeric antibody of Example 2) (antibody, V domains shown)
VH: B3 VH with T31S, T35S, R44G, Q53R, G56S, D57E, K58R, T72G, L79V
VL: B3 VL with I2T, T10I, M13V, D31S, P40L, G50D, L85V, T92N, H93N
notes: as for B1
B7: 134H3G6 (TIM-3 antibody purified from hybridoma, chimeric antibody of Example 2) (antibody, V domains shown)
VH: EVQLVESGGGLVQPGGSLRLSCAASGFTFSNSWMTWVRQAPGKGLEWVANIKQAGTEKYYVDSVKGRFTISRDNAKNSLYLQMNSLRAEDTAVYYCNSGSNYFDYWGQGTLVTVSS
VL: B4 VL with T2I, N26R, V29F, D50G, F58I
notes: as for B1
B8: 215A8F2 fully human TIM-3 antibody (human IgG4, kappa) (antibody, V domains shown)
VH: B2 VH
VL: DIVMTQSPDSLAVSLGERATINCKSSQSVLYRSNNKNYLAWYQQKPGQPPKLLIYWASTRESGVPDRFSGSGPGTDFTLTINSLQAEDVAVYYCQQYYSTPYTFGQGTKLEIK
B9: 57F4E5 fully human TIM-3 antibody (human IgG4, kappa) (antibody, V domains shown)
VH: B5 VH
VL: B4 VL with N26S, N28S, Y30S, Q38R, D50F, A51S, F58I
B10: 134H3G6 fully human TIM-3 antibody (human IgG4, kappa) (antibody, V domains shown)
VH: B7 VH
VL: B4 VL with T2I, N26R, V29F, D50G, F58I

The first test addresses T1, murine TIM-3 protein with hFc tag …. The experiment in a line: ELISA, coated mTIM-3-hFc.
Turning to B1, the binding result is “no binding (tested: 66.667 nM)”.

In the case of B2, the binding result was “no binding (tested: 66.667 nM)”.

In the case of B3, the binding result is on record as “no binding (tested: 66.667 nM)”.

For the molecule B4, the binding result was “no binding (tested: 66.667 nM)”.

Regarding B5, the binding result was “no binding (tested: 66.667 nM)”.

Regarding B6, the binding result was “no binding (tested: 66.667 nM)”.

On to B7, for which the binding result was “no binding (tested: 66.667 nM)”.

For the next test, the target named is T2, murine TIM-3 extracellular domain …. The experiment in a line: ELISA, coated mouse TIM-3 ECD protein, 0.0007 nM antibody. (ELISA stands for enzyme-linked immunosorbent assay.)
As to B8, the OD450 amounted to 0.21.

Consider B9, for which the OD450 is 0.23.

In turn, B10 returned an OD450 of 0.21.

In another test the target is T3, monkey TIM-3 protein with hFc tag …. The experiment in a line: ELISA, coated cTIM-3-hFc; antibody 6.6667 nM. An excerpt: (§1) The amino acid sequence 22-200 of the extracellular domain of the human TIM-3 protein described in the step of Example 1 (as shown in SEQ ID NO. 71 in the sequence listing) was cloned into a pCpC vector having a human IgG Fc fragment (hFc), and transfected into HEK293 cells. The cell culture medium was collected, and purified to obtain the human TIM-3 protein with hFc tag (herein referred to as hTIM-3-hFc protein). The amino acid sequence 22-201 of the extracellular domain of the monkey TIM-3 protein (as shown in SEQ ID NO. 72 in the sequence listing) was cloned into a pCpC vector having a human IgG Fc fragment (hFc), and transfected into HEK293 cells. The cell culture medium was collected, and purified to obtain the monkey TIM-3 protein with hFc tag (herein referred to as cTIM-3-hFc protein). […] The cell culture medium was collected, and purified to obtain the murine TIM-3 protein with hFc tag (herein referred to as mTIM-3-hFc protein). Purified human, monkey, and mouse TIM-3 extracellular domain proteins (hTIM-3-hFc, cTIM-3-hFc, and mTIM-3-hFc) were diluted with PBS to a final concentration of 1.0 μg/ml and then added to a 96-well ELISA plate with 100 μl per well. The plate was sealed with plastic film and incubated overnight at 4° C. The plate was washed 4 times with the plate washing solution (PBS+0.01% Tween20) on the next day, and added with the blocking solution (PBS+0.01% Tween20+1% BSA) and sealed at room temperature for 1-2 hours. The blocking solution was poured out. 50-100 μl of the antibody sample to be tested was added to each well. The plate was incubated at 37° C. for 1-2 hours, and washed 2-3 times with plate washing solution (PBS+0. 01% Tween20). HRP (horseradish peroxidase) labeled secondary antibody was added. The plate was incubated at 37° C. for 1-2 hours, and washed 2-3 times with plate washing solution (PBS+0. 01% Tween20). […] of TMB substrate was added to each well. After incubated at room temperature for 15-30 minutes, the plate was added with […] stop solution (1.0N HCl) to each well. An ELISA plate reader (TiterMax 384plus, Molecular Device) was used to read the A450 nm value.
For the molecule B1, the OD450 amounted to 3.12.

The molecule B2 gave an OD450 of 3.45.

Molecule B3 displayed an OD450 of 3.55.

For B4, the OD450 stood at 3.34.

Turning to B5, the OD450 was 3.48.

B6 displayed an OD450 of 3.5.

For the molecule B7, the OD450 stood at 3.02.

The target of the next test is T4, human TIM-3 protein with hFc tag …. The experiment in a line: ELISA, coated hTIM-3-hFc; antibody 0.6667 nM.
Source text: as §1
B1 had an OD450 of 0.86.

As for B2, the OD450 is 3.06.

B3 yielded an OD450 of 3.41.

On to B4, for which the OD450 amounted to 1.33.

Take B5: the OD450 stood at 3.31.

B6 gave an OD450 of 3.41.

In turn, B7 came in with an OD450 of 0.69.

The next test addresses T5, human TIM-3 on CHOK1 stable cell line …. The experiment in a line: FACS, CHOK1-hTIM-3 cells, 0.32 nM antibody.
Molecule B8 registered a Mean fluorescence intensity of 73.6.

On to B9, for which the Mean fluorescence intensity was 69.7.

In turn, B10 gave a Mean fluorescence intensity of 96.6.

The next test has the same target. Briefly: FACS, CHOK1-hTIM-3 cells, 8 nM antibody.
Molecule B8 had a Mean fluorescence intensity of 298.

Consider B9, for which the Mean fluorescence intensity was 154.

Molecule B10 yielded a Mean fluorescence intensity of 229.

A further test addresses T6, human TIM-3 extracellular domain …. Briefly: ELISA, coated human TIM-3 ECD protein, 0.6667 nM antibody.
As to B8, the OD450 was found to be 2.88.

B9 showed an OD450 of 2.89.

Molecule B10 had an OD450 of 2.74.

The target in a further test is T1, murine TIM-3 protein with hFc tag …. Briefly: ELISA, coated mTIM-3-hFc; antibody 0.0667 nM.
Source text: as §1
Molecule B1 yielded an OD450 of 0.62.

B2 yielded an OD450 of 0.67.

The molecule B3 yielded an OD450 of 0.68.

B4 yielded an OD450 of 0.67.

Regarding B5, the OD450 stood at 0.64.

Consider B6, for which the OD450 came to 0.68.

The molecule B7 gave an OD450 of 0.65.

The target of a further test is T4, human TIM-3 protein with hFc tag …. The experiment in a line: ELISA, coated hTIM-3-hFc; antibody 0.0001 nM.
Source text: as §1
B1 had an OD450 of 0.12.

The molecule B2 came in with an OD450 of 0.12.

B3 showed an OD450 of 0.12.

B4 yielded an OD450 of 0.12.

B5 returned an OD450 of 0.13.

In the case of B6, the OD450 turned out to be 0.13.

B7: the OD450 stood at 0.12.

The target in another test is T2, murine TIM-3 extracellular domain …. The experiment in a line: ELISA, coated mouse TIM-3 ECD protein, 0.6667 nM antibody.
With B8, the OD450 was 0.24.

The molecule B9 registered an OD450 of 0.28.

Molecule B10 came in with an OD450 of 0.23.
